Target: DNMT5 (Cryptococcus neoformans, UniProt J9VI03 58-2377)
Assay: fluorescence polarization

Sequence of DNMT5 (J9VI03 58-2377): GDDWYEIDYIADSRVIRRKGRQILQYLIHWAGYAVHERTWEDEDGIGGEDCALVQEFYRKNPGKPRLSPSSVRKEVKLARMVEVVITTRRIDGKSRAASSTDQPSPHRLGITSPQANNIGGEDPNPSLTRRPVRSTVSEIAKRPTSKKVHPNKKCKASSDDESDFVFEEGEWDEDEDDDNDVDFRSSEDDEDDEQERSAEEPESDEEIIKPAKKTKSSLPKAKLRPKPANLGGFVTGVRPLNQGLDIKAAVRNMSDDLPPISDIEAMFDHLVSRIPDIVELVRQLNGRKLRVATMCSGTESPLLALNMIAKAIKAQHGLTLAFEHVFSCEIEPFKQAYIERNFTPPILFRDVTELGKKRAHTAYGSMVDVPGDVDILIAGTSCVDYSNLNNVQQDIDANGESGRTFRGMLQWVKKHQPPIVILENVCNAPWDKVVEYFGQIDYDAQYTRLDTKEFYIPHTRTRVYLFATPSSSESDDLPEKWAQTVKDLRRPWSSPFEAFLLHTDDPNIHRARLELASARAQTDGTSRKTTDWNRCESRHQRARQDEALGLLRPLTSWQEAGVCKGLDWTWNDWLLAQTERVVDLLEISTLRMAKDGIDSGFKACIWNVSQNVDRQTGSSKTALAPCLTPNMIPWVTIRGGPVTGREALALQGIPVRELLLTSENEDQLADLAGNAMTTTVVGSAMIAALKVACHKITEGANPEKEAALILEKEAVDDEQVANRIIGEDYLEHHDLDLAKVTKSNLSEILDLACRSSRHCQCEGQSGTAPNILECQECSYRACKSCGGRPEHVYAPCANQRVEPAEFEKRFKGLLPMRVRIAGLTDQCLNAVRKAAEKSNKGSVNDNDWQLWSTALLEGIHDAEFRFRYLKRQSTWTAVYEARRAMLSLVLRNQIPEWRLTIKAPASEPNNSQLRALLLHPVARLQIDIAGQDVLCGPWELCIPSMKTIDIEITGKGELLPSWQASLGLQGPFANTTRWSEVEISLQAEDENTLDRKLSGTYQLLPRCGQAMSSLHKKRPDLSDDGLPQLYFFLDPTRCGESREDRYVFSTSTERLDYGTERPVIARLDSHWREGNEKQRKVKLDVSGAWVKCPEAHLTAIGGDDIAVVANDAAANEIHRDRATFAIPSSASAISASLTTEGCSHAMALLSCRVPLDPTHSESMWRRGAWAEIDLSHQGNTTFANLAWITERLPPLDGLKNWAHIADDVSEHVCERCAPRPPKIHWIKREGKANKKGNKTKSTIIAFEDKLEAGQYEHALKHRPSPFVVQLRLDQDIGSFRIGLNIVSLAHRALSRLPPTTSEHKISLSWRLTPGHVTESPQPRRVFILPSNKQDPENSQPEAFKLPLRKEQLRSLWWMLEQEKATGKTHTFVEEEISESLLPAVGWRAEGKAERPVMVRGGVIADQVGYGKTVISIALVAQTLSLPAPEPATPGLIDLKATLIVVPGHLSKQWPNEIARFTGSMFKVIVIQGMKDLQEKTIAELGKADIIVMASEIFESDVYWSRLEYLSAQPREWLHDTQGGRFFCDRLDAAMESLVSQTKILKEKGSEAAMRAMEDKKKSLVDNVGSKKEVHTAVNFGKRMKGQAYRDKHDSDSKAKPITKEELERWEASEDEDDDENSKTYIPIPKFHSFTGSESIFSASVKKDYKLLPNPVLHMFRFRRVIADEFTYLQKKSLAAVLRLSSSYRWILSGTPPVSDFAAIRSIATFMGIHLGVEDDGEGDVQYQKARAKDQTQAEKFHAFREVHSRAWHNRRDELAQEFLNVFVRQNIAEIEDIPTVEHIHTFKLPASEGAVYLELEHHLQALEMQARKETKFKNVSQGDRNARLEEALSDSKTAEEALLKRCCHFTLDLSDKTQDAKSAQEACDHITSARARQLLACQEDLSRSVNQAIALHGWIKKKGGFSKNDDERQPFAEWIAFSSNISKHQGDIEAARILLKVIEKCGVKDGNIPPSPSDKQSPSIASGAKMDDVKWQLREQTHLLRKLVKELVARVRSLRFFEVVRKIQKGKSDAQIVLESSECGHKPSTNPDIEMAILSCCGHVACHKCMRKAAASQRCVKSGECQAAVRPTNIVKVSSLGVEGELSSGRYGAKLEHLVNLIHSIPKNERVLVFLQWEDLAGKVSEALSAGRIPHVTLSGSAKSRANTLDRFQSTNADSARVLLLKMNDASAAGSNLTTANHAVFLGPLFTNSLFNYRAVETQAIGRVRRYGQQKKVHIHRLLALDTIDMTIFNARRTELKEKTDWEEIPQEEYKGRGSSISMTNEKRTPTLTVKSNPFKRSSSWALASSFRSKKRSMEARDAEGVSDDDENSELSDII

B1: FAM-hmDNA (dsDNA)
DNA 1: CCATGCGCTGACACTAGAATTGCCTAAGACCATACA
DNA 2: TGTATGGTCTTAGGCAATTCTAGTGTCAGCGCATGG
modifications: 5-methylcytosine at position 30 of strand 2 (hemimethylated CpG)
**Q.** B1 was tested. Which binding signal did it give?
**A.** ~4 fold preference over umDNA

Reference: PMC8956514
